Assay results from patent US20230399395A1 (published 2023).
Where a chain is given by its changes, count along the chain named.

B1: HuNb21-Fc (antibody, V domains shown)
VH: EVQLQESGGGLVQPGGSLRLSCAASGYPYSGDYCMGWFRQAPGKEREGVAAFYTGGGSTYYADSVKGRFTISRDNSKNTLYLQMNSLRAEDTAVYYCAADPWSVYGGSCGVKDPNPKAFNYWGQGTLVTVSS
B2: HuNb66-Fc (antibody, V domains shown)
VH: EVQLQESGGGLVQPGGSLRLSCAASGYTVSSNMGWFRQAPGKEREGVAAIYPDGATYYADSVKGRFTISRDNSENTLYLQMNSLRAEDTAMYYCAADLAFNGLGTLALHGYWGQGTLVTVSS
B3: Nb25 (VHH)
VHH: QVQLQESGGGSVQAGGSLRLSCAASEYTYSRYCMGWFRQVPGKEREGVATIDSDGSTSYADSVKGRFTISKDNAKNTLYLQMNSLKPEDTAMYYCAARYFYIATTGLRPCGEYEYNYWGQGTQVTVSS
B4: Nb92 (VHH)
VHH: QVQLQESGGGLVQPGGSLRLSCAASGFTFSNYYMSWVRQAPGKGLEWVSSISSDGSNTYYEDSVKGRFTISRDNANNTLYLQMNSLKSEDTALYHCATDLYDDSWYDHWGQGTQVTVSS
B5: Nb21 (VHH)
VHH: QVQLQESGGGSAQAGGSLKLSCVVSGYPYSGDYCMGWFRQAPGKEREGVAAFYTGGGSTYYADSVKGRFTTSQDNATSTFHLQMNSLKPEDTATYYCAADPWSVYGGSCGVKDPNPKAFNYWGQGTQVTVSS
B6: Nb66 (VHH)
VHH: B2 VH with E1Q, L11S, P14A, R70Q, S73A, L77V, R85K, A86P, L117Q

Each binder was assayed against T1, human IL5 (human, UniProt P05113 20-134, biotinylated (IL5-biotin) in Examples 2, 5, 6, 9 and 11; site not stated) (assay: flow).
B1 was tested, and the IC50 was 5.96 µg/mL.
In the case of B2, the IC50 is reported as 5.73 µg/mL.

What follows are binders tested against T1, human IL5 (assay: flow cytometry blocking IL5/IL5R).
Work on B3 yielded an IC50 of 2.62 µg/mL.
In the case of B4, the IC50 is reported as 2.29 µg/mL.
For B5, the IC50 was 1.57 µg/mL.
Binder B6 has an IC50 of 1.17 µg/mL.

These binders were tested against T1, human IL5 (assay: BLI).
B3 gave a Kd of 0.491 nM.
B4 showed a Kd of 0.385 nM.
With B5 the Kd was 0.629 nM.
B6 was tested, and the Kd was < 0.001 nM.

These binders were tested against T1, human IL5 (assay: ELISA).
B3 was tested, and the EC50 was 0.0427 µg/mL.
With B4 the EC50 was 0.0432 µg/mL.
Binder B5 has an EC50 of 0.0357 µg/mL.
B6 was tested, and the EC50 was 0.0327 µg/mL.
